Laboratory results taken from US5536822A, “γ-phosphate linked adenosine 5' triphosphate sepharose” (University of Virginia Alumni Patents Foundation, priority 1994, dated 1996).

Substrate: Nc1ncnc2c1ncn2[C@@H]1O[C@H](COP(=O)(O)OP(=O)(O)OP(=O)(O)O)[C@@H](O)[C@H]1O
Assay: Inhibition constant of the ATP derivative / Km for ATP, p42^mapk assay
Format: biochemical
Conditions: other: p42^mapk; pH 7.4
From the text: [γ-^32 P] ATP was synthesized according to the procedure set forth in Johnson et al., Advances in Cyclic Nucleotide Research, 10:135-167 (1979). The catalytic subunit of cyclic-AMP-dependent protein kinase was purchased from Promega. p60^c-arc was obtained from the Department of Microbiology, University of Virginia. Recombinant p42^mapk was purified as described in Haystead et al., (1992) FEBS Lett., 306:17-22. STE7 antibody was obtained from the University of Vancouver, Canada.
The 42-kDa MAP kinase (p42^mapk) and MAPKK were assayed as described previously (Haystead et al. (1992) FEBS. Lett., 306:17-22). The cyclic-A kinase assays (30 μl) included 1 μg cyclic-A kinase, 2 mM Kemptide, 50 mM Hepes, pH 7.4, 1 mM dithiothreitol, 200 μM ATP, 5 mM MgCl2. […]
In order to assess the effectiveness of adenosine 5'-(γ-4-aminophenyl)triphosphate as an affinity ligand for protein kinases, the inhibition constants (Ki) of the derivative were determined for four different protein kinases, namely, p42^mapk, cyclic-A kinase, MAPKK and p60^c-arc (Table 1). […] This also facilitated comparisons for the relative binding constants determined with other ATP analogs (Flockhart et al. (1984) Eur. J. Biochem., 140:289-295; Hoppe et al. (1972) Eur. J. Biochem., 80:369-372; Taylor et al. (1990) Peptides and Protein Phosphorylation (Kemp et al.) pp 2-32, CRC Press).

B1: p42^mapk (Mus musculus) (protein)
chain: MAAAAAAGPEMVRGQVFDVGPRYTNLSYIGEGAYGMVCSAYDNLNKVRVAIKKISPFEHQTYCQRTLREIKILLRFRHENIIGINDIIRAPTIEQMKDVYIVQDLMETDLYKLLKTQHLSNDHICYFLYQILRGLKYIHSANVLHRDLKPSNLLLNTTCDLKICDFGLARVADPDHDHTGFLTEYVATRWYRAPEIMLNSKGYTKSIDIWSVGCILAEMLSNRPIFPGKHYLDQLNHILGILGSPSQEDLNCIINLKARNYLLSLPHKNKVPWNRLFPNADSKALDLLDKMLTFNPHKRIEVEQALAHPYLEQYYDPSDEPIAEAPFKFDMELDDLPKEKLKELIFEETARFQPGYRS
notes: made in house
  Km: 7.5 ± 0.71 µM
